Source: ChEMBL document CHEMBL1148343, “Fragment-based drug discovery” (J Med Chem, 2004)

Substrate: Nc1nc(=O)c2c([nH]1)NCC1CN(c3ccc(C(=O)N[C@@H](CCC(=O)O)C(=O)O)cc3)CN21
Assay: Michaelis-Menten constant (Km) against thymidylate synthase

B1: Thymidylate synthase (Lactobacillus casei), P00469 (protein)
chain: MLEQPYLDLAKKVLDEGHFKPDRTHTGTYSIFGHQMRFDLSKGFPLLTTKKVPFGLIKSELLWFLHGDTNIRFLLQHRNHIWDEWAFEKWVKSDEYHGPDMTDFGHRSQKDPEFAAVYHEEMAKFDDRVLHDDAFAAKYGDLGLVYGSQWRAWHTSKGDTIDQLGDVIEQIKTHPYSRRLIVSAWNPEDVPTMALPPCHTLYQFYVNDGKLSLQLYQRSADIFLGVPFNIASYALLTHLVAHECGLEVGEFIHTFGDAHLYVNHLDQIKEQLSRTPRPAPTLQLNPDKHDIFDFDMKDIKLLNYDPYPAIKAPVAV
- Km: 14 µM
